{"source": "patent US20260356928", "about": "(published 2026)", "binders": {"B1": {"name": "NI-504.3E7 (antibody, V domains shown)", "VH": "EVQLVETGGGFVQPGGSLQLSCAVSGFPYSGTSFHWVRQVSGKGLEWIGRIRSKSDNYETSYTESLKGRFIVSRDDSKNMVRLHLYSLRTEDTALYYCTTGIIVVDTSYLDHWGRGTLVTVSS", "VL": "SYELTQPPSASVSPGQTARITCSGAALPKKYAYWYQLKSGQAPVLVIYEDTKRPSGIPERFSGSSSGTLATLTINGALVEDEADYYCYSTDSSGDVWVFGGGTKLTVL"}}, "biological_target": "CRMP1 (human, UniProt Q14194)", "test": "ELISA"}
{"binder": "B1", "values": [{"measurement": "EC50", "result": 69, "unit": "nM"}]}
